Experimental data published in patent publication US20170210813A1 (Regeneron, published 2017).

Key:
[1] = target: T1, hPDGFRb.mmh (human, UniProt P09619 33-531); assay: Octet BLI cross-competition, 25 C; hPDGFRb.mmh on anti-Penta-His tips pre-saturated with mAb-1 H4H3365N (row 2)
T1 construct: Soluble monomeric construct; also called soluble human PDGFR-beta.mmh
Method: (§1) A cross-competition assay was conducted to assess the ability of select antibodies to compete with one another for binding to human PDGFR-beta. […] Each PDGFR-beta.mmh-coated sensor tip was saturated for 5 min with a first anti-PDGFR-beta antibody (Mab #1; 50 μg/mL). Next, each sensor tip was saturated with a solution of a second anti-PDGFR-beta antibody (Mab #2). The real time response of Mab #2 binding to PDGR-beta.mmh pre-complexed with Mab #1 was then monitored. All assays were performed at 25° C. with a flow rate of 1000 rpm on an Octet RED384 biosensor in Octet HBST buffer according to manufacturer's instructions (ForteBio Corp., Menlo Park, Calif.). Results are illustrated in FIG. 2.

[2] = target: T1, hPDGFRb.mmh; assay: Octet BLI cross-competition, 25 C; hPDGFRb.mmh on anti-Penta-His tips pre-saturated with mAb-1 H4H3374N (row 3)
Method: as §1

[3] = target: T1, hPDGFRb.mmh; assay: blocking ELISA, biot-hPDGFRb.mmh to coated PDGF-BB
[4] = target: T1, hPDGFRb.mmh; assay: Octet BLI cross-competition, 25 C; hPDGFRb.mmh on anti-Penta-His tips pre-saturated with mAb-1 H4H3103S (row 4)
Method: as §1

[5] = target: T1, hPDGFRb.mmh; assay: Octet BLI cross-competition, 25 C; hPDGFRb.mmh on anti-Penta-His tips pre-saturated with mAb-1 H4H3107S (row 7)
Method: as §1

[6] = target: T1, hPDGFRb.mmh; assay: Octet BLI cross-competition, 25 C; hPDGFRb.mmh on anti-Penta-His tips pre-saturated with mAb-1 H4H3094P (row 5)
Method: as §1

[7] = target: T2, full length human PDGFR-beta on HEK293 cells (human, UniProt P09619 33-1106); assay: cell-based or functional assay
[8] = target: T1, hPDGFRb.mmh; assay: Octet BLI cross-competition, 25 C; hPDGFRb.mmh on anti-Penta-His tips pre-saturated with mAb-1 Control I (row 1)
Method: as §1

[9] = target: T3, Macaca fascicularis PDGFRb.mmh (Macaca fascicularis); assay: SPR, mAb captured, 25 C
T3 construct: Soluble monomeric construct; also called mfPDGFRb.mmh
T3 chain: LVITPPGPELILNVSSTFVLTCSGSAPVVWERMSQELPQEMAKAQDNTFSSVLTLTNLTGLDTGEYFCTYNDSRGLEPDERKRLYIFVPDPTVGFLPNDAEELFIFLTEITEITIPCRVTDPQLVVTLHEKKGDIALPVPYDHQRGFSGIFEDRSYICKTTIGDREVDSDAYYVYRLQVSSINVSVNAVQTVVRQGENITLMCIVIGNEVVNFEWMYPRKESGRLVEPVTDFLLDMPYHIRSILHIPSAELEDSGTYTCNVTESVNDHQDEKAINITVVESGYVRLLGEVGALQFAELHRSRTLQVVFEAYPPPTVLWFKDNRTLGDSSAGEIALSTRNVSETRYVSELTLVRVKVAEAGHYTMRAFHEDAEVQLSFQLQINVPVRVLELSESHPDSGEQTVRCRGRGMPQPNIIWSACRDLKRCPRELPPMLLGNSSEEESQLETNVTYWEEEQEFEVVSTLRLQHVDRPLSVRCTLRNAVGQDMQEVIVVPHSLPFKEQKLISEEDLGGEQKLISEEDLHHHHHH
Method: (§2) Antibodies, expressed as either mouse Fc (prefix H1M; H2M) or human Fc (prefix H4H), were captured on their respective anti-Fc sensor surfaces (Mab capture format). […] Kinetic association (kₐ) and dissociation (kd) rate constants were determined by processing and fitting the data to a 1:1 binding model using Scrubber 2.0 curve fitting software.

[10] = target: T1, hPDGFRb.mmh; assay: SPR, mAb captured, 25 C
Method: as §2

[11] = target: T4, human PDGFRb.hFc (human); assay: SPR, mAb captured, 25 C
T4 construct: Soluble dimeric construct with human Fc; also called hPDGFRb.hFc
Method: as §2

[12] = target: T1, hPDGFRb.mmh; assay: Octet BLI cross-competition, 25 C; hPDGFRb.mmh on anti-Penta-His tips pre-saturated with mAb-1 H4H3099S (row 6)
Method: as §1

[13] = target: T3, Macaca fascicularis PDGFRb.mmh; assay: SPR, mAb captured, 37 C
Method: as §2

[14] = target: T1, hPDGFRb.mmh; assay: SPR, mAb captured, 37 C
Method: as §2

[15] = target: T4, human PDGFRb.hFc; assay: SPR, mAb captured, 37 C
Method: as §2

[16] = target: T1, hPDGFRb.mmh; assay: Octet BLI cross-competition, 25 C; hPDGFRb.mmh on anti-Penta-His tips pre-saturated with mAb-1 H4H3305N (row 8)
Method: as §1

[17] = target: T2, full length human PDGFR-beta on HEK293 …; assay: cell-based or functional assay; remark: listed apart in the source
[18] = target: T5, human PDGFRb.mFc (human); assay: SPR, mAb captured, 25 C
T5 construct: Soluble dimeric construct with mouse Fc; also called hPDGFRb.mFc; soluble human PDGFR-beta.mFc
T5 chain: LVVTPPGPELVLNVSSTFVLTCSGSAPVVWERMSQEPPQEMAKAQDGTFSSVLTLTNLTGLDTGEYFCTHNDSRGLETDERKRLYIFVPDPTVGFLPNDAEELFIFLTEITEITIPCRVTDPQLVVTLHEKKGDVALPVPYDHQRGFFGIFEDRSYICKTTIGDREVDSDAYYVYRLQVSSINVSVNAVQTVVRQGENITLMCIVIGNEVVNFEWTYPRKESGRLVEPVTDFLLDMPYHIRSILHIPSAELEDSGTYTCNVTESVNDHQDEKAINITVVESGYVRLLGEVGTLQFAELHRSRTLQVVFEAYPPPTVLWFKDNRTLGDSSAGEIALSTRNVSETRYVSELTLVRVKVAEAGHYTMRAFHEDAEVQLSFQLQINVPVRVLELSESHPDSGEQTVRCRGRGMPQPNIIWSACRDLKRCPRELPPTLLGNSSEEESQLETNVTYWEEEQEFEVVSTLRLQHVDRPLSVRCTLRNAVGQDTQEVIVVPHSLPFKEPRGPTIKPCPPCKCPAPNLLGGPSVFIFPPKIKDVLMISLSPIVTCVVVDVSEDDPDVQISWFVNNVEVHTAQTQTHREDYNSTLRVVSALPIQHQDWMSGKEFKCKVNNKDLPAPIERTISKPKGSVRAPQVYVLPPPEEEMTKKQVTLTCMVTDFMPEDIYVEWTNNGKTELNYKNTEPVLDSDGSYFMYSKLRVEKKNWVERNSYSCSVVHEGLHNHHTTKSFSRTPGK
Method: as §2

B1: H4H3310N (antibody, human IgG4, V domains shown)
VH: EVQLLESGGDLVQPGGSLRLSCAASGITFSSFAMSWVRQAPGKGLEWVSTVSVSAGITYYADSVKGRFTISRDNSKNTLYLQMNSLRAEDTAIYYCAKSSCTTNSCPAYFDYWGLGTLVTVSS
VL: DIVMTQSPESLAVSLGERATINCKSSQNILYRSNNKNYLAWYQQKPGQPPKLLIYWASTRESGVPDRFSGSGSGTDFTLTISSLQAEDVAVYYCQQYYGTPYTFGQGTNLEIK
notes: human IgG4 Fc (H4H prefix)
- Response of mAb-2 Binding to hPDGFRβ.mmh Pre-Complexed with mAb-1 (nm) [1]: 0.24 nm
- Response of mAb-2 Binding to hPDGFRβ.mmh Pre-Complexed with mAb-1 (nm) [2]: 0.23 nm
- % Maximum Blocking [3]: 86%
- IC50 [3]: 0.45 nM
- Response of mAb-2 Binding to hPDGFRβ.mmh Pre-Complexed with mAb-1 (nm) [4]: 0.24 nm
- Response of mAb-2 Binding to hPDGFRβ.mmh Pre-Complexed with mAb-1 (nm) [5]: -0.01 nm
- Response of mAb-2 Binding to hPDGFRβ.mmh Pre-Complexed with mAb-1 (nm) [6]: 0.27 nm
- Percent Internalization (Relative to Control I) [7]: 66%
- Response of mAb-2 Binding to hPDGFRβ.mmh Pre-Complexed with mAb-1 (nm) [8]: 0.2 nm
- Kd [9]: 3.75 nM
- koff [9]: 0.000108 s⁻¹
- kon [9]: 28800 M⁻¹ s⁻¹
- t1/2 [9]: 1.78 h
- Kd [10]: 3.41 nM
- koff [10]: 8.92e-05 s⁻¹
- kon [10]: 26100 M⁻¹ s⁻¹
- t1/2 [10]: 2.17 h
- Kd [11]: 0.652 nM
- koff [11]: 2.9e-05 s⁻¹
- kon [11]: 44500 M⁻¹ s⁻¹
- t1/2 [11]: 6.63 h
- Response of mAb-2 Binding to hPDGFRβ.mmh Pre-Complexed with mAb-1 (nm) [12]: -0.01 nm
- Kd [13]: 7.62 nM
- koff [13]: 0.000392 s⁻¹
- kon [13]: 51400 M⁻¹ s⁻¹
- t1/2 [13]: 0.483 h
- Kd [14]: 6.65 nM
- koff [14]: 0.000339 s⁻¹
- kon [14]: 50900 M⁻¹ s⁻¹
- t1/2 [14]: 0.567 h
- Kd [15]: 0.632 nM
- koff [15]: 4.5e-05 s⁻¹
- kon [15]: 71300 M⁻¹ s⁻¹
- t1/2 [15]: 4.27 h
- Response of mAb-2 Binding to hPDGFRβ.mmh Pre-Complexed with mAb-1 (nm) [16]: 0.01 nm
- IC50, blocking PDGF-BB (250 pM) activation, SRE-luciferase [17]: 6.8e-10 M
- IC50, blocking PDGF-DD (400 pM) activation, SRE-luciferase [17]: 6.6e-10 M

B2: H1M3374N (antibody, V domains shown)
VH: QLQLQESGPGLVKPSETLSLTCTVSGGSITSSSYYWGWIRQPPGKGLEWIGSIYYRGSTNYNPSLKSRVTISVDSSKNQFYLKVSSVTAVDTAVYYCARQNGAARPSWFDPWGQGTLVTVSS
VL: EIVLTQSPDTISLSPGERATLSCRASQSISSIYLAWYQQKPGQAPRLLIYGASSRVTGIPDRFSVSGSGTDFTLTISRLEPEDFAVYYCQHYGISPFTFGPGTKVDIR
notes: mouse Fc format; also called H2M3374N
- % Maximum Blocking [3]: 88%
- IC50 [3]: 0.077 nM
- Kd [9]: 2.7 nM
- koff [9]: 0.000371 s⁻¹
- kon [9]: 137000 M⁻¹ s⁻¹
- t1/2 [9]: 0.517 h
- Kd [18]: 0.108 nM
- koff [18]: 0.000107 s⁻¹
- kon [18]: 996000 M⁻¹ s⁻¹
- t1/2 [18]: 1.8 h
- Kd [10]: 1.99 nM
- koff [10]: 0.000331 s⁻¹
- kon [10]: 167000 M⁻¹ s⁻¹
- t1/2 [10]: 0.583 h
- Kd [14]: 1.71 nM
- koff [14]: 0.00079 s⁻¹
- kon [14]: 463000 M⁻¹ s⁻¹
- t1/2 [14]: 0.25 h
- IC50, blocking PDGF-BB (250 pM) activation, SRE-luciferase [17]: 3.1e-10 M
- IC50, blocking PDGF-DD (400 pM) activation, SRE-luciferase [17]: 2.1e-10 M
